In paper PMC12216891 (Scientific Reports, 2025):

Molecular target: the molecule itself
Test: cryo-EM structure

B1: Thermochromatium tepidum form-IAq RuBisCO large subunit (RbcL) (natural protein, UniProt A0A6I6DX30 1-472, looked up)
chain: MAKTYSAGVKEYRETYWMPNYTPKDTDILACFKITPQPGVPREEAAAAVAAESSTGTWTTVWTDLLTDLDYYKGRAYAIEDVPGDDTCFYAFIAYPIDLFEEGSVVNVFTSLVGNVFGFKAVRALRLEDVRFPIAYVMTCNGPPHGIQVERDILNKYGRPLLGCTIKPKLGLSAKNYGRAVYECLRGGLDFTKDDENVNSQPFMRWRQRFDFVMEAIDKAERETGERKGHYLNVTAPTPEEMYKRAEYAKEIGAPIIMHDYITGGFCANTGLAQWCRNNGVLLHIHRAMHAVLDRNPHHGIHFRVLTKILRLSGGDHLHTGTVVGKLEGDRQATLGWIDLLRESYVKEDRSRGIFFDQDWGAMPGAFAVASGGIHVWHMPALVTIFGDDSVLQFGGGTLGHPWGNAAGACANRVALEACIEARNQGIPIEKEGKEVLTKAAAHSPELKIAMETWKEIKFEFDSVDKLDVAHK
- stoichiometry N: 8
